Measurements published in patent publication US8481032B2, “Lipocalin-2 antibodies for methods of treatment” (The University of Hong Kong, priority 2006, dated 2013).

Tests used:
T2DM patients = assay: Rosiglitazone treatment of T2DM patients: serum lipocalin-2 and metabolic parameters; format: in vivo, human; settings: 32 T2DM patients, rosiglitazone 4 mg twice daily, 8 weeks
Method: The affinity-purified anti-human or anti-murine lipocalin-2 IgG was biotinylated with a kit from Pierce and used as the detection antibodies. The unlabeled anti-human or anti-murine lipocalin-2 IgG was used for coating a 96-well microtiter plate overnight at 4° C. Human or mouse serum was diluted (1:50) into PBS, and 100 μl of the diluted samples or recombinant standards were applied to each well and incubated at 37° C. for 1 h. The plates were washed three times and then incubated with 100 μl of the detection antibody for another 2 h. After washing for another three times with PBS, the wells were incubated with streptavidin-conjugated horseradish peroxidase for 1 h and subsequently reacted with tetramethyl-benzidine reagent for 15 min. A total of 100 μl of 2 M H2SO4 was added to each well to stop the reaction, and the absorbance at 450 nm was measured. The intra- and inter-assay coefficients of variance were determined by measuring five serum samples in a total of six independent assays with duplicate determinations.
The effect of rosiglitazone on serum levels of lipocalin-2 was investigated in 32 T2DM patients (see Example 2) treated with this drug (4 mg twice daily) for 8 weeks.

L6 myotubes [1] = assay: Fatty acid uptake, fatty acid oxidation and triglyceride accumulation in L6 myotubes; format: cell-based, rat
From the text: FIG. 5A is a bar graph of […] ^3H-palmitate uptake (fold over control) in differentiated L6 myotubes treated with the indicated concentrations of lipocalin-2 or vehicle for 48 hr. FIG. 5B is a bar graph of ^14C-oleate oxidation (fold over control) in differentiated L6 myotubes treated with the indicated concentrations of lipocalin-2 or vehicle for 48 hr. Fatty acid oxidation was quantified by the production of ^14CO2 from [1-^14C]oleate. * P<0.05; ** P<0.01 versus untreated cells.
(§1) Rat L6 skeletal myoblasts were grown in α-minimum essential medium (αMEM) containing 10% (v/v) FBS and 1% antibiotic solution (100 units/ml penicillin, 100 μg/ml streptomycin, 250 ng/ml amphotericin B) in a humidified atmosphere of 95% air and 5% CO2 at 37° C. For differentiation to myotubes, cells were cultured in αMEM containing 2% (v/v) FBS for 5-7 days.
[^3H]-palmitic acid (Amersham, Quebec, Canada) was used to determine fatty acid uptake as previously described (Bastie, C. C., et al. Diabetes, 53:2209-2216 (2004)). with slight modifications. […] After treatments, culture medium was removed and cells washed twice with wash buffer (140 mM NaCl, 20 mM HEPES-Na, 2.5 mM MgSO4, 1 mM CaCl2, 5 mM KCl pH 7.4, 0.1% defatted albumin) and once with HEPES buffer. Cells were subsequently incubated with transport solution (10 μM defatted albumin, 0.5 μCi/ml [^3H]-palmitic acid; FA:BSA ratio=2) for 1 minute at room temperature. Then the reaction was stopped by washing with pre-cold stop buffer (140 mM NaCl, 20 mM HEPES-Na, 2.5 mM MgSO4, 1 mM CaCl2, 5 mM KCl pH 7.4) Non-specific uptake was measured in the presence of excess palmitate (2 mM) and subtracted from all other values. Cells were then lysed with 1 M KOH and aliquots were transferred to scintillation vials for ^3H radioactivity counting.

[2] = system: genes involved in glucose and lipid metabolism in skeletal muscle and liver; assay: mRNA expression of genes involved in glucose and lipid metabolism in skeletal muscle and liver of lipocalin-2-treated mice; format: in vivo, mouse; settings: versus vehicle
Method: Total RNA was isolated from mouse liver, epididymal adipose tissue and soleus muscle using the RNeasy kit (Qiagen). Subsequently, mRNA was reverse transcribed into cDNA using the oligo-dT primer (Roche). The relative gene abundance was quantified by Taqman real-time PCR using the pre-developed assay kits (Applied Biosystems, Foster city, CA). The reactions were performed on the ABI 7000 sequence detection system.
(§2) To evaluate the effect of lipocalin-2 on glucose homeostasis and insulin sensitivity, normal C57 mice were treated with murine lipocalin-2 by intraperitoneal injection of the recombinant protein (5 mg protein/kg body weight, twice a day at 12 hr intervals).
The effects of lipocalin-2 on mRNA expression of several genes involved in glucose and lipid metabolism in skeletal muscle and liver were investigated (FIGS. 4A-4B).

C57 mice = assay: Chronic treatment of C57 mice with recombinant lipocalin-2: body weight, food intake, metabolic parameters, ipGTT and ITT; format: in vivo, mouse
Method: Fasting (16 hr) plasma glucose levels and triglyceride (TG) concentrations were measured by using a Glucose (GO) assay kit (Sigma) and Triglyceride GPO reagent (Pointe Scientific Inc., Lincoln Park, Mich., USA) respectively. Fasting serum insulin concentrations were quantified by using the commercial ELISA kits from Mercodia AB (Uppsala, Sweden). Serum total cholesterol and free fatty acids (FFAs) were analyzed by using the kits from Wako (Richmond, Va., USA) and Roche Diagnostics respectively. TG contents in liver and soleus muscle were analyzed as described elsewhere (Ellis, B. A et al., Am J Physiol Endocrinol Metab. 279:E554-560 (2000); Xu, A., et al. J Clin Invest 112:91-100 (2003)).
For ipGTT, overnight fasted mice (16 hr) were given a glucose load by intraperitoneal injection (1 g glucose/kg body weight). For ITT, mice were starved for 6 h, and then intraperitonally injected with insulin (1 U/kg body weight). Plasma glucose levels were measured at different time points as indicated.
as §2

L6 myotubes [3] = assay: 2-deoxyglucose uptake in L6 myotubes; format: cell-based, rat
Method: FIG. 6 is a bar graph of 2-deoxyglucose uptake (arbitrary units) in L6 myotubes treated without or with indicated concentrations of lipocalin-2 for 48 hr, and then stimulated without or with insulin for another 20 min. The rate of glucose uptake was measured by uptake of 2-deoxy-D-[^3H]glucose. * P<0.05 versus untreated cells; # P<0.05 versus cells treated with insulin alone (n=4-6).
as §1
Cells were incubated with various concentration of lipocalin-2 for 20 h, subsequently serum-starved in the continued presence of lipocalin-2 for the final 4 h in 24-well plates prior to further treatment. Cells were then washed twice with PBS and treated with insulin or vehicle for 15 min. After treatments, glucose uptake was determined. Briefly, cells were incubated in transport solution (140 mM NaCl, 20 mM HEPES-Na, 2.5 mM MgSO4, 1 mM CaCl2, 5 mM KCl and 0.5 μCi/ml 2-deoxy-D-[^3H]glucose, pH 7.4) for 5 min at room temperature. Nonspecific uptake was measured in the presence of cytochalasin B (10 μM). Cells were then lysed with 1 M KOH, and aliquots were transferred to scintillation vials for ^3H radioactivity counting.

[4] = L6 myotubes, acute treatment within 2 hr (data not shown)
[5] = liver tissue of lipocalin-2-treated mice
[6] = skeletal muscle of lipocalin-2-treated mice
[7] = fasting, recombinant lipocalin-2 5 mg/kg i.p. twice a day, 4 weeks
[8] = recombinant lipocalin-2 5 mg/kg i.p. twice a day, 4 weeks

CN(CCOc1ccc(CC2SC(=O)NC2=O)cc1)c1ccccn1 (centres unmarked) [rosiglitazone]
Body Mass Index (T2DM patients): 25.5 ± 3.6 Kg/m^2
Fasting Glucose (T2DM patients): 6.8 ± 1.2 mM
Fasting Insulin (T2DM patients): 7.9 ± 3.5 mIU/l
HOMA-IR (T2DM patients): 2.4 ± 1.2
Lipocalin-2 (serum level) (T2DM patients): 61.9 ± 25.9 ng/mL

B1: Lipocalin-2: recombinant murine lipocalin-2 expressed in BL21 cells, His6 tag and endotoxin removed (protein)
chain: QDSTQNLIPAPSLLTVPLQPDFRSDQFRGRWYVVGLAGNAVQKKTEGSFTMYSTIYELQENNSYNVTSILVRDQDQGCRYWIRTFVPSSRAGQFTLGNMHRYPQVQSYNVQVATTDYNQFAMVFFRKTSENKQYFKITLYGRTKELSPELKERFTRFAKSLGLKDDNIIFSVPTDQCIDN
modifications: left off: small tags and cut ends
notes: recombinant murine lipocalin-2 expressed in BL21 cells, His6 tag and endotoxin removed
triglyceride accumulation, increase compared with untreated cells (L6 myotubes [1]; L6 myotubes at 72 hr following lipocalin-2 treatment, n=4, p<0.05): 1.51±0.58 folds
fatty acid uptake and oxidation, acute treatment (L6 myotubes [1]; [4]): no obvious effects
fatty acid uptake (L6 myotubes [1]; L6 myotubes, prolonged incubation with lipocalin-2 (24 h and 48 h), 3H-palmitate): significant increase
rate of fatty acid oxidation (L6 myotubes [1]; L6 myotubes, prolonged incubation with lipocalin-2 (24 h and 48 h), 14C-oleate): decrease
expression of glucose-6-phosphatase (G6P) [2, 5]: modest, but significant increase
expression of phosphoenolpyruvate carboxylase (PEPCK) [2, 5]: modest, but significant increase
expression of several genes involved in fatty acid transport, synthesis and oxidation [2, 5]: did not modulate
expression of GLUT1 [2, 6]: decreased
expression of GLUT4, acetyl CoA carboxylase (ACO) and several other fatty acid transport proteins (FATP2, 3 and 5, and CD36) [2, 6]: did not affect
expression of acyl-CoA oxidase [2, 6]: inhibited
expression of uncoupling protein 2 (UCP2) [2, 6]: inhibited
steady-state mRNA level of fatty acid transport protein 1 (FATP-1) [2, 6]: significantly increased
steady-state mRNA level of fatty acid transport protein 4 (FATP-4) [2, 6]: significantly increased
daily average of serum lipocalin-2 levels, higher than that of the endogenous protein (C57 mice; 5 mg protein/kg i.p. twice a day at 12 hr intervals): 2.2-3.5 folds
Plasma glucose (C57 mice; [7]): 137.4 ± 11.6 mg/dL
Plasma insulin (C57 mice; [7]): 1.5 ± 0.04 ng/mL
Serum TG (C57 mice; [7]): 93.9 ± 8.9 mg/dL
glucose tolerance (ipGTT) (C57 mice; long-term lipocalin-2 treatment, day 24, 1 g glucose/kg i.p.): induced glucose intolerance
insulin sensitivity (ITT) (C57 mice; long-term lipocalin-2 treatment, day 26, insulin 1 U/kg i.p.): decreased insulin sensitivity
Serum FFAs (C57 mice; [8]): 0.72 ± 0.08 mmol/L
Serum adiponectin (C57 mice; [8]): 7.9 ± 1.8 µg/mL
Serum total cholesterol (C57 mice; [8]): 101.4 ± 8.8 mg/dL
TG contents in liver (C57 mice; [8]): 6.9 ± 0.8 mg/g tissue
TG contents in muscle (C57 mice; [8]): 7.3 ± 0.8 mg/g tissue
basal glucose uptake (L6 myotubes [3]; L6 myotubes at 48 hr after lipocalin-2 treatment): significantly decreased
basal and insulin-stimulated glucose uptake, acute treatment (L6 myotubes [3]; [4]): no obvious effects
magnitude of insulin-stimulated increase in glucose uptake, versus untreated cells (L6 myotubes [3]; L6 myotubes, lipocalin-2-treated, not statistically significant): slightly lower
